± gives the uncertainty stated by the source.
B1: library; numbered along this chain (parent)
chain: MEVVDPQQLGMFTEGELMSVGMDTFIHRIDSTEVIYQPRRKRAKLIGKYLMGDLLGEGSYGKVKEVLDSETLCRRAVKILKKKKLRRIPNGEANVKKEIQLLRRLRHKNVIQLVDVLYNEEKQKMYMVMEYCVCGMQEMLDSVPEKRFPVCQAHGYFCQLIDGLEYLHSQGIVHKDIKPGNLLLTTGGTLKISDLGVAEALHPFAADDTCRTSQGSPAFQPPEIANGLDTFSGFKVDIWSAGVTLYNITTGLYPFEGDNIYKLFENIGKGSYAIPGDCGPPLSDLLKGMLEYEPAKRFSIRQIRQHSWFRKKHPPAEAPVPIPPSPDTKDRWRSMTVVPYLEDLHGADEDEDLFDIEDDIIYTQDFTVPGQVPEEEASHNGQRRGLPKAVCMNGTEAAQLSTKSRAEGRAPNPARKACSASSKIRRLSACKQQ

Variants of: B1
Assay: STK11 functional score (HeLa growth suppression), rescaled enrichment; synonymous median = 1, nonsense median = 0 (normalised score)
Conditions: with HeLa; variant type: missense
Procedure: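 Deep mutational scan (TileSeq/POPCode codon randomisation) of full-length codon-optimised STK11 cDNA integrated at a Bxb1 landing pad (AAVS1) in HeLa cells. Restoring functional STK11 suppresses HeLa proliferation. Variant frequencies were measured by NGS before and after about two weeks of growth. The error-corrected enrichment log-ratio was rescaled so that synonymous median = 1 and nonsense median = 0, scores above 1 were compressed, and codon-level and three biological replicate scores were combined; error is the bootstrapped standard error. Scale: synonymous median = 1, nonsense median = 0; below 0.5 = damaging.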

STK11 functional score of substitutions, site by site:
D30: W 1.3 ± 0.58 | T 1.62 ± 0.21 | H 1.31 ± 0.68 | S 1.7 ± 0.19 | C 1.44 ± 0.51 | Y -0.0227 ± 0.33 | R 1.69 ± 0.13 | G 1.52 ± 0.3
L17: Q 1.71 ± 0.4 | R 1.22 ± 0.26 | V 1.35 ± 0.12 | Y 1.6 ± 0.25 | G 1.53 ± 0.25 | A 1.68 ± 0.37 | D 1.7 ± 0.12 | P 1.6 ± 0.25 | F 0.925 ± 0.58 | I 0.851 ± 0.16 | S 1.35 ± 0.55 | H 1.53 ± 0.16 | M 0.968 ± 0.24 | T 1.62 ± 0.18 | W 1.56 ± 0.24
V34: S 1.29 ± 0.16 | Y 1.05 ± 0.13 | F 0.976 ± 0.2 | D 0.585 ± 0.37 | I 1.1 ± 0.34 | G 1.08 ± 0.45 | C 0.884 ± 0.4 | R 0.822 ± 0.17 | L 1.13 ± 0.19 | A 1.03 ± 0.57
D5: H 1.13 ± 0.53 | N 1.24 ± 0.67
V20: S 1.46 ± 0.22 | P 1.43 ± 0.45 | I 1.22 ± 0.31 | D 1.59 ± 0.14 | C 0.242 ± 0.13 | L 0.787 ± 0.15 | A 1.29 ± 0.21 | R 1.56 ± 0.14 | T 1.6 ± 0.17 | H 1.44 ± 0.17 | G 1.43 ± 0.12
G10: D 1.4 ± 0.1 | A 1.38 ± 0.17 | F 1.56 ± 0.41 | I 1.64 ± 0.13 | P 1.18 ± 0.49 | V 0.971 ± 0.18 | W 1.33 ± 0.084 | M 1.51 ± 0.42 | L 1.63 ± 0.21 | S 1.17 ± 0.092 | C 1.4 ± 0.19 | Y 1.18 ± 0.15
I26: M 1.63 ± 0.33
G21: A 1.39 ± 0.38 | R 1.2 ± 0.64
I29: H 0.0412 ± 0.14 | C 1.41 ± 0.41 | V 1.68 ± 0.14 | S 1.32 ± 0.17 | T 0.53 ± 0.082 | R 1.14 ± 0.18 | F 0.117 ± 0.076 | E 1.4 ± 0.7 | G 1.16 ± 0.8 | W 1.63 ± 0.21 | M 0.901 ± 0.47 | L 1 ± 0.15 | N 1.49 ± 0.75 | Y 1.12 ± 0.28
M22: C 1.21 ± 0.38 | A 1.21 ± 0.85 | F 1 ± 0.23 | Y 1.57 ± 0.096 | V 1.13 ± 0.69 | H 1.67 ± 0.21 | G 1.07 ± 0.099 | S 1.68 ± 0.34 | W 0.633 ± 0.55 | T 1.63 ± 0.51 | P 1.54 ± 0.16 | R 1.65 ± 0.38
E14: P 1.65 ± 0.34 | I 1.4 ± 0.14 | L 1 ± 0.14 | S 1.34 ± 0.15 | V 1.03 ± 0.29 | A 0.905 ± 0.29 | Y 1.34 ± 0.49 | M 1.62 ± 0.18 | W 0.426 ± 0.6 | Q 1.35 ± 0.3 | D 1.22 ± 0.3 | K 0.385 ± 0.59 | F 1.13 ± 0.088
G15: Y 1.58 ± 0.29 | R 1.4 ± 0.4 | P 1.66 ± 0.28 | V 1.1 ± 0.24 | L 1.48 ± 0.2 | D 1.72 ± 0.12 | S 1.28 ± 0.12 | F 1.05 ± 0.1 | T 1.68 ± 0.17 | A 0.969 ± 0.36 | N 1.69 ± 0.15 | W 0.148 ± 0.38 | E 1.68 ± 0.46 | C 1.15 ± 0.21
V4: H 1.65 ± 0.25 | I 1.43 ± 0.16 | E 1.09 ± 0.6 | W 1.22 ± 0.089 | P 1.03 ± 0.13 | D 1.45 ± 0.39 | L 0.909 ± 0.33 | F 0.964 ± 0.46 | R 1.32 ± 0.2 | G 1.03 ± 0.13 | S 0.996 ± 0.14 | T 1.06 ± 0.15
M11: S 1.33 ± 0.41 | T 1.23 ± 0.65 | C 1.69 ± 0.36 | W 1.71 ± 0.11 | K 1.32 ± 0.44 | G 1.4 ± 0.54 | V 1.55 ± 0.48 | L 1.52 ± 0.23
M18: V 0.413 ± 0.24 | R 0.834 ± 0.13 | T 1.62 ± 0.27 | P 1.69 ± 0.13 | Y 1.43 ± 0.41 | W 0.78 ± 0.076 | Q 1.28 ± 0.12 | I 0.652 ± 0.32 | E 1.56 ± 0.2 | A 1.69 ± 0.16 | D 0.127 ± 0.19 | S 1.31 ± 0.14 | H 1.37 ± 0.18 | L 1.08 ± 0.34 | G 1.36 ± 0.22 | C 0.902 ± 0.4
S19: H 0.00479 ± 0.13 | F 0.945 ± 0.12 | K 1.53 ± 0.39 | P 1.32 ± 0.23 | V 0.694 ± 0.18 | A 0.891 ± 0.38 | Y 1.01 ± 0.15 | I 1.34 ± 0.41 | W 1.43 ± 0.4 | G 1.64 ± 0.2 | E 1.45 ± 0.34 | R 0.749 ± 0.093 | L 0.775 ± 0.094
Q8: L 1.5 ± 0.66 | K 0.838 ± 0.23
D23: H 1.22 ± 0.68 | G 1.54 ± 0.2
